{"source": "paper PMC2691842", "about": "(Nucleic Acids Research, 2009)", "proteins": {"B1": {"name": "C.Esp1396I controller (C) protein (natural protein, UniProt Q8GGH0 1-79, looked up)", "chain": "MESFLLSKVSFVIKKIRLEKGMTQEDLAYKSNLDRTYISGIERNSRNLTIKSLELIMKGLEVSDVVFFEMLIKEILKHD"}}, "target": "the molecule itself", "test": "AUC", "data": [{"protein": "B1", "values": [{"measurement": "Kd", "result": "~600", "unit": "nM"}, {"measurement": "stoichiometry N", "result": 2}]}]}
